Molecular target: HA-tagged PA of FluA (Influenza A virus)
Assay: ELISA

Chain of soluble wild-type PB1_(1–25)A peptide (non-biotinylated competitor) (A4GCI3 1-25): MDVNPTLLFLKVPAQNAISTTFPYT

Substance: soluble wild-type PB1_(1–25)A peptide (non-biotinylated competitor)
- IC50: 1.8 nM

— article PMC2759517
